Paper PMC6073210, “Adducin‐1 is essential for spindle pole integrity through its interaction with TPX2” (EMBO Reports, 2018)
One block for each molecule: values may come before it.

How the values were obtained:
TPX2 = TPX2 (UniProt Q9ULW0); assay: anti-FLAG resin co-IP, TPX2 blot; conditions: reference: FLAG-ADD1 wild type, M phase; sites S726
[1] = biological target: T1, FLAG-ADD1 WT (adducin-1), transiently expressed in HEK293 cells (UniProt P35611 1-737); assay: pull-down; GST-TPX2 fusion proteins immobilised on glutathione agarose beads, incubated with 25 μg of lysates from HEK293 cells expressing FLAG-tagged ADD1 forms at 4°C for 60 min; washed with TBS buffer; blot with anti-FLAG; conditions: one partner purified
T1 construct: adducin-1 (ADD1); pCMV-3Tag-3A probably adds a C-terminal 3x FLAG; also called FLAG-tagged ADD1; 293/FLAG-ADD1; source: HEK293, transiently transfected, in lysate
T1 sequence (looked up): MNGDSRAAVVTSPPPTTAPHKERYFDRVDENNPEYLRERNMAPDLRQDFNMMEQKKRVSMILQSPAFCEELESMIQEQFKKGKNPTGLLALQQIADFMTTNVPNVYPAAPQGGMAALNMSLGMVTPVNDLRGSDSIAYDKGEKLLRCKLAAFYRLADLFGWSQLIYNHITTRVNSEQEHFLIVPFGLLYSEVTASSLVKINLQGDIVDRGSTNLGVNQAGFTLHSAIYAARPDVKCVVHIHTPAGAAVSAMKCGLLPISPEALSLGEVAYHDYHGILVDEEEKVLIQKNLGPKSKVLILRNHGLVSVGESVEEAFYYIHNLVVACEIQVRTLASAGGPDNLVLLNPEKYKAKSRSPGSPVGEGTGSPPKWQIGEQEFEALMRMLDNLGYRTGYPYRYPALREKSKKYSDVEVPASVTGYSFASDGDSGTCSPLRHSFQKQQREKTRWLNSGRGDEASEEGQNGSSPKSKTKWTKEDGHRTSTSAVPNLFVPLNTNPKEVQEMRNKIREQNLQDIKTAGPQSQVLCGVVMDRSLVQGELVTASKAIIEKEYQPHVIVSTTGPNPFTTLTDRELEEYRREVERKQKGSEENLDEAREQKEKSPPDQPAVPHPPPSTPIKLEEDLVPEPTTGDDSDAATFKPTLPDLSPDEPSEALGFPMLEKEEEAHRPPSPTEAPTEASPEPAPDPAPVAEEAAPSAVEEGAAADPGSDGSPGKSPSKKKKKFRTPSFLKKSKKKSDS

[2] = biological target: T2, FLAG-ADD1 S726A mutant, expressed in HeLa cells (UniProt P35611 1-737, S726A); assay: co-IP; HeLa cells expressing FLAG-ADD1 WT or S726A, synchronized at the M phase (nocodazole); lysates in TBS buffer (1% Triton X-100, 50 mM Tris-HCl pH 7.4, 150 mM NaCl) incubated with anti-FLAG M2 affinity resins for 16 h, eluted with FLAG peptide, blotted with anti-FLAG and anti-TPX2; conditions: partners not purified
T2 construct: adducin-1 (ADD1) with S726A; source: HeLa cells expressing FLAG-ADD1 S726A (lentiviral vector pLAS3w.Pneo), in whole-cell lysate
T2 sequence (looked up): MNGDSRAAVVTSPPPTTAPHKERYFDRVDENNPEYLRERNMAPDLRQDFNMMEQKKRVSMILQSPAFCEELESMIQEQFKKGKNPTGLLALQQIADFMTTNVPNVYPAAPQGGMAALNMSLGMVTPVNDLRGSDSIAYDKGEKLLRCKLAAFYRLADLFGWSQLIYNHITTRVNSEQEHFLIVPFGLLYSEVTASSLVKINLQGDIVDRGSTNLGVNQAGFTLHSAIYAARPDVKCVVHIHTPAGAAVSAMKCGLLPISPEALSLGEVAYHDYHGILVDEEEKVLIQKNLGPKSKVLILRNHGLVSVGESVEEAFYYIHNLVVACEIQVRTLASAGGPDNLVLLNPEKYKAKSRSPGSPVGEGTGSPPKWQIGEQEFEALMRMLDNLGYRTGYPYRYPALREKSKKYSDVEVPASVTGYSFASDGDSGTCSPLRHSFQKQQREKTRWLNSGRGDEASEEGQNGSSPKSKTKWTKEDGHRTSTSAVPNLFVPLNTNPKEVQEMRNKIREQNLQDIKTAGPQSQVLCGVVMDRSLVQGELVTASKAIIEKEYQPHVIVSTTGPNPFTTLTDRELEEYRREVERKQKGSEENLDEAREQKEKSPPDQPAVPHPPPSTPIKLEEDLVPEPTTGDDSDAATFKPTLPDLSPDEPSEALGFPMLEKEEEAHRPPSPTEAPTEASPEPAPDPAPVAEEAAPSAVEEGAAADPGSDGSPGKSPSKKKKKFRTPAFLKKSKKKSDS

TPX2 co-IP binding relative to wild type (TPX2): weaker
Molecule: adducin-1 (ADD1) (from UniProt P35611) FLAG-ADD1 S726A, M phase

binding result [1]: binds
B1: GST-TPX2 aa 120–370 fusion protein (domain or fragment, human, UniProt Q9ULW0 120-370, looked up)
chain: RSLRLSAQKDLEQKEKHHVKMKAKRCATPVIIDEILPSKKMKVSNNKKKPEEEGSAHQDTAEKNASSPEKAKGRHTVPCMPPAKQKFLKSTEEQELEKSMKMQQEVVEMRKKNEEFKKLALAGIGQPVKKSVSQVTKSVDFHFRTDERIKQHPKNQEEYKEVNFTSELRKHPSSPARVTKGCTIVKPFNLSQGKKRTFDETVSTYVPLAQQVEDFHKRTPNRYHLRSKKDDINLLPSKSSVTKICRDPQTP
notes: TPX2, Homo sapiens, aa 120–370 of the full-length cDNA (aa 1–747), subcloned into pGEX-2T; pGEX-2T probably places GST at the N-terminus; also called TPX2 aa 120–370 fragment; GST-tagged TPX2 aa 120–370; source: E. coli BL21, purified on glutathione agarose beads

percent decrease of the interaction relative to FLAG-ADD1 WT [2]: ~50%
B2: TPX2, endogenous in HeLa cells (natural protein, human (endogenous in HeLa), UniProt Q9ULW0 1-747, looked up)
chain: MSQVKSSYSYDAPSDFINFSSLDDEGDTQNIDSWFEEKANLENKLLGKNGTGGLFQGKTPLRKANLQQAIVTPLKPVDNTYYKEAEKENLVEQSIPSNACSSLEVEAAISRKTPAQPQRRSLRLSAQKDLEQKEKHHVKMKAKRCATPVIIDEILPSKKMKVSNNKKKPEEEGSAHQDTAEKNASSPEKAKGRHTVPCMPPAKQKFLKSTEEQELEKSMKMQQEVVEMRKKNEEFKKLALAGIGQPVKKSVSQVTKSVDFHFRTDERIKQHPKNQEEYKEVNFTSELRKHPSSPARVTKGCTIVKPFNLSQGKKRTFDETVSTYVPLAQQVEDFHKRTPNRYHLRSKKDDINLLPSKSSVTKICRDPQTPVLQTKHRARAVTCKSTAELEAEELEKLQQYKFKARELDPRILEGGPILPKKPPVKPPTEPIGFDLEIEKRIQERESKKKTEDEHFEFHSRPCPTKILEDVVGVPEKKVLPITVPKSPAFALKNRIRMPTKEDEEEDEPVVIKAQPVPHYGVPFKPQIPEARTVEICPFSFDSRDKERQLQKEKKIKELQKGEVPKFKALPLPHFDTINLPEKKVKNVTQIEPFCLETDRRGALKAQTWKHQLEEELRQQKEAACFKARPNTVISQEPFVPKKEKKSVAEGLSGSLVQEPFQLATEKRAKERQELEKRMAEVEAQKAQQLEEARLQEEEQKKEELARLRRELVHKANPIRKYQGLEIKSSDQPLTVPVSPKFSTRFHC
notes: TPX2, endogenous protein of HeLa cells detected with anti-TPX2; source: endogenous, HeLa whole-cell lysate
